Measured values from article PMC4603797, “The Structural Differences between a Glycoprotein Specific F-Box Protein Fbs1 and Its Homologous Protein FBG3” (PLoS ONE, 2015).
Where a chain is given by its changes, count along the chain named.

What was measured:
ribonuclease B [1] = biological target: ribonuclease B (UniProt P61823); test: pull-down; settings: read off a plot; for percent of parent: parent: est. 100; for other: Relative RNase B binding (% of Skp1–Fbs1 wild type control): parent: n.d.
ribonuclease B [2] = biological target: ribonuclease B (UniProt P61823); test: pull-down; settings: parent: est. 100; read off a plot
Fbs1 SBD A217C = biological target: T1, Fbs1 SBD A217C (murine, UniProt Q80UW2 117-297, A217C); test: pull-down; His-tagged Fbs1 SBDs (15 μg) immobilised on Ni-NTA agarose, incubated with 10.7 μg RNase B at 4°C for 1 h; 20 mM Tris-HCl pH 7.5, 20 mM imidazole, 500 mM NaCl; SDS-PAGE, CBB staining, densitometry; settings: both partners purified
T1 construct: Fbs1/FBXO2, murine, SBD residues 117-297; Made with the KOD-Plus Mutagenesis kit; source: E. coli (pET15b), purified (Ni-NTA, gel filtration)
T1 sequence (looked up): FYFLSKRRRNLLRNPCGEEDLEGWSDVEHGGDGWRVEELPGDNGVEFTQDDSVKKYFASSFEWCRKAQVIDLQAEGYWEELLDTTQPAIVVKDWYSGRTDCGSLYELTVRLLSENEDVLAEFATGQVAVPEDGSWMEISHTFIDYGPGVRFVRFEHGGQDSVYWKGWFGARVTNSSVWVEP

Fbs1 SBD L220K = biological target: T2, Fbs1 SBD L220K (murine, UniProt Q80UW2 117-297, L220K); test: as above; settings: both partners purified
T2 construct: Fbs1/FBXO2, murine, SBD residues 117-297; Made with the KOD-Plus Mutagenesis kit; source: E. coli (pET15b), purified (Ni-NTA, gel filtration)
T2 sequence (looked up): T1 sequence (looked up) with C101A, L104K

Fbs1 SBD T215P = biological target: T3, Fbs1 SBD T215P (murine, UniProt Q80UW2 117-297, T215P); test: as above; settings: both partners purified
T3 construct: Fbs1/FBXO2, murine, SBD residues 117-297; Made with the KOD-Plus Mutagenesis kit; source: E. coli (pET15b), purified (Ni-NTA, gel filtration)
T3 sequence (looked up): T1 sequence (looked up) with T99P, C101A

[3] = biological target: T4, SBD of Fbs1 (117–297), wild type (murine, UniProt Q80UW2 117-297); test: as above; settings: both partners purified
T4 construct: In pET15b; also called Fbs1 SBD; Fbs1 wild type; source: E. coli Rosetta (DE3), purified (Ni-NTA, gel filtration)
T4 sequence (looked up): T1 sequence (looked up) with C101A

A percent of parent (ribonuclease B [1]) of 62% was found for “SBD of Fbs1 (117–297), wild type (from UniProt Q80UW2) loop β2-3 of Fbs1 replaced by that of FBG3” in this work.

A percent of parent (ribonuclease B [2]) of 25% and a percent of parent (ribonuclease B [1]) of 28% were found for “SBD of Fbs1 (117–297), wild type (from UniProt Q80UW2) loop β5-6 of Fbs1 replaced by that of FBG3” in this work.

A percent of parent (ribonuclease B [1]) of 96% was found for “SBD of Fbs1 (117–297), wild type (from UniProt Q80UW2) loop β7-8 of Fbs1 replaced by that of FBG3” in this work.

A percent of parent (ribonuclease B [1]) of 110% was found for “SBD of Fbs1 (117–297), wild type (from UniProt Q80UW2) loop β9-10 of Fbs1 replaced by that of FBG3” in this work.

A percent of parent (ribonuclease B [1]) of 12% was found for “SBD of Fbs1 (117–297), wild type (from UniProt Q80UW2) loops β2-3/β5-6 of Fbs1 replaced by those of FBG3” in this work.

A percent of parent (ribonuclease B [1]) of 2.5% was found for “SBD of Fbs1 (117–297), wild type (from UniProt Q80UW2) loops β2-3/β5-6/β7-8/β9-10 of Fbs1 replaced by those of FBG3” in this work.

An other: Relative RNase B binding (% of Skp1–Fbs1 wild type control) (ribonuclease B [1]) of 84% was found for “Skp1–FBG3 complex, wild type (His-tagged Skp1) (from UniProt P63208;Q9H4M3) loops β2-3/β5-6/β7-8 of FBG3 replaced by those of Fbs1” in this work.

An other: Relative RNase B binding (% of Skp1–Fbs1 wild type control) (ribonuclease B [1]) of 78% was found for “Skp1–FBG3 complex, wild type (His-tagged Skp1) (from UniProt P63208;Q9H4M3) loops β2-3/β5-6/β7-8/β9-10 of FBG3 replaced by those of Fbs1” in this work.

B1: ribonuclease B (enzyme, bovine, UniProt P61823 27-150, looked up)
chain: KETAAAKFERQHMDSSTSAASSSNYCNQMMKSRNLTKDRCKPVNTFVHESLADVQAVCSQKNVACKNGQTNCYQSYSTMSITDCRETGSSKYPNCAYKTTQANKHIIVACEGNPYVPVHFDASV
modifications: a single high-mannose oligosaccharide
notes: ribonuclease B (glycosylated pancreatic ribonuclease), bovine pancreas; The Fbs proteins recognise the N-glycan of this glycoprotein; also called RNase B; source: bought: Sigma Aldrich (from bovine pancreas)
B1: binds (Fbs1 SBD A217C); binds (Fbs1 SBD L220K); binds (Fbs1 SBD T215P). B1: binds [3].
